Experimental data as given in FireProtDB (doi:10.1021/bi9929958).

Settings: Homo sapiens; pH 7.8; Thermal; DSC; Potassium phosphate 20 mM; reversible: yes; whole UniProt chain shown

B1: Superoxide dismutase [Mn], mitochondrial wild type, P04179 (protein)
chain: MLSRAVCGTSRQLAPVLGYLGSRQKHSLPDLPYDYGALEPHINAQIMQLHHSKHHAAYVNNLNVTEEKYQEALAKGDVTAQIALQPALKFNGGGHINHSIFWTNLSPNGGGEPKGELLEAIKRDFGSFDKFKEKLTAASVGVQGSGWGWLGFNKERGHLQIAACPNQDPLQGTTGLIPLLGIDVWEHAYYLQYKNVRPDYLKAIWNVINWENVTERYMACKK
Question: Which Tm does the source give for B1 here?
Answer: 88.9 °C
